We go through one molecule from paper PMC11662670, “Selective recognition of RNA G-quadruplex in vitro and in cells by L-aptamer–D-oligonucleotide conjugate”.

The data set concerns the target T1, DHX36 (UniProt Q9H2U1 1-1008).
T1 sequence: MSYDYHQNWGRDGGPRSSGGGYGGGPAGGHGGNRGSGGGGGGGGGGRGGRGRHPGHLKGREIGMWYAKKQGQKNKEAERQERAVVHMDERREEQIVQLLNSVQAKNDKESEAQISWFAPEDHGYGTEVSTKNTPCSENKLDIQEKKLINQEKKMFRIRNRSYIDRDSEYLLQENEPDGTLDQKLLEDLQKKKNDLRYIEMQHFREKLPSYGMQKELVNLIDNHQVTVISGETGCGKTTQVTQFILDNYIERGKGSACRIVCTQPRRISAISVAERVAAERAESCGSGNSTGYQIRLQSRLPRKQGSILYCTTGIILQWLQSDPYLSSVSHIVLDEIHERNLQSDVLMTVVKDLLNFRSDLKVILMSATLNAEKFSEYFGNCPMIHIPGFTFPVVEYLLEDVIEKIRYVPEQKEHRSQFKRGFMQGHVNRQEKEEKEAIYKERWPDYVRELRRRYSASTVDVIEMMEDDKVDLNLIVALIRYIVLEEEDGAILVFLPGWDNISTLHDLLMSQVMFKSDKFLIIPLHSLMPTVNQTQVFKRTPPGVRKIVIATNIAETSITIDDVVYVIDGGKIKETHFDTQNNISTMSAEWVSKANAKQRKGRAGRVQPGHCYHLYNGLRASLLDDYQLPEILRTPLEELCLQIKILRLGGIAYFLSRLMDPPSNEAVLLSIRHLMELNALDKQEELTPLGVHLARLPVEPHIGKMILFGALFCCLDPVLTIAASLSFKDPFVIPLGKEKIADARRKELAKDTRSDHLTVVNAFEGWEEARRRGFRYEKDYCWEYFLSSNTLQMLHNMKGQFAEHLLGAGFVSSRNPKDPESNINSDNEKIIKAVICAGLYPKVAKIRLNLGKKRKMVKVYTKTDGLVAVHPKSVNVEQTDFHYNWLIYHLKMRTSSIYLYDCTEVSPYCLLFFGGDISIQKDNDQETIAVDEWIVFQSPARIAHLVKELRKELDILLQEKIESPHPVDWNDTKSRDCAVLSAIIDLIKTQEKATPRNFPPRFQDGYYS
The data set is described as follows: EMSA; EMSA: 150 mM KCl, 1 mM MgCl2, 25 mM Tris-HCl pH 7.5, 8% sucrose, 30 min at 37 C; gel at 4 C. Pull-down: same buffer without sucrose, 4 C. Conditions: protein: commercial; label: 5' HEX; intramolecular rG4 with 3' single-stranded flank. (In general: Mobility shift assays separate free from complexed probe on a gel.)

As usually defined, the Kd is a measure of binding affinity in units of concentration. Lower therefore signals a tighter complex.

B1: HEX_APP rG4 wt region (structured_RNA)
RNA: GGGGCGGGUGGGGAGGGGUGCUCUGCUGGUCUUCAAUU
B1: the Kd is 51.3 ± 10.1 nM.
